In this test the target is T1, purified extracellular domain of the erbB-2 protein (human, UniProt P04626 23-652).
T1 construct: extracellular domain; also called erbB-2^ecd; soluble erbB-2 receptor
In words: flow cytometry. Here is the method: Cell surface expression and erbB-2 receptor binding ability of the scFv(FRP5):hinge:ζ protein in transduced C196 CTL and in transduced Jurkat cells are confirmed by flow cytometry.
Single-cell suspensions of 5 ×10^5 viable cells (Jurkat cells, JFYZ.4 cells, C196 cells, CFYZ.1 cells) are stained with the purified extracellular domain of the erbB-2 protein (erbB-2^ecd, expressed in Sf9 insect cells using a baculovirus expression vector; Disis et al., Cancer Res. 54, 16–20 (1994)) for 1 hour followed by the FITC-conjugated anti-erbB-2 monoclonal antibody FSP77 (European patent application EP-A-502 812) for 45 min at 4° C. in 100 µl PBS containing 1% BSA and 0.1% sodium azide. FSP77 also is specific for the extracellular domain of the erbB-2 receptor, but recognizes a different epitope from mAb FRP5 (I. M. Harwerth et al., J. Biol. Chem. 21, 15160–15167 (1992)).

B1: scFv(FRP5):hinge:ζ protein (receptor)
chain: QIQLVQSGPELKKPGETVKISCKASGYPFTNYGMNWVKQAPGQGLKWMGWINTSTGESTFADDFKGRFDFSLETSANTAYLQINNLKSEDMATYFCARWEVYHGYVPYWGQGTTVTVSSGGGGSGGGGSGGGGSDIQLTQSHKFLSTSVGDRVSITCKASQDVYNAVAWYQQKPGQSPKLLIYSASSRYTGVPSRFTGSGSGPDFTFTISSVQAEDLAVYFCQQHFRTPFTFGSGTKLEIKALEISNSVMYFSSVVPVLQKVNSTTTKPVLRTPSPVHPTGTSQPQRPEDCRPRGSVKGTGLDFLEDPKLCYLLDGILFIYGVIITALYLRAKFSRSAETAANLQDPNQLYNELNLGRREEYDVLEKKRARDPEMGGKQQRRRNPQEGVYNALQKDKMAEAYSEIGTKGERRRGKGHDGLYQGLSTATKDTYDALHMQTLAPR
notes: Stood on the surface of transduced murine CTL C196 (clone CFYZ.1) and human Jurkat cells (clone JFYZ.4); On cells it is found as disulfide-linked homodimers and as heterodimers with endogenous ζ; also called scFv(FRP5):hinge:zeta; scFv:hinge:ζ
Consider B1, for which the binding result is recorded as “binds”.
